We go through five molecules from US20230059181A1 (EPSILOGEN, published 2023).

The Kd is a measure of binding affinity in units of concentration. A low value points to a tighter complex.

Assay [1] has as its target T1, Human CD16B (FcγRIIIB), His-tagged (human, UniProt O75015 17-200).
T1 construct: also called hFcγRIIIb
Put plainly: SPR single cycle, steady state fit, His-tagged receptor captured, antibody as analyte.
Text: (§1) FcRs were captured on a CM5 sensor chip pre-coupled using a His capture kit (Cytiva, Uppsala, Sweden) using standard amine chemistry.
(§2) At the start of each cycle His-tagged Fc receptors diluted in HEPES buffered saline containing 0.05% v/v Surfactant P20 (HBS-P+) were loaded to a specified RU level (Table 7). A five point, three-fold dilution range of test antibody without regeneration between each concentration was used for each receptor tested. […] In all cases, antibodies were passed over the chip in increasing concentrations followed by a single dissociation step. Following dissociation, the chip was regenerated with two injections of Glycine pH 1.5. The signal from the reference channel Fc1 (blank) was subtracted from that of the Fc loaded with receptor to correct for differences in non-specific binding to the reference surface.

Assay [2] deals with T2, Human CD16A 176 Val (FcγRIIIA176Val), His-tagged (human, UniProt P08637 17-208).
T2 construct: also called FcγRIIIA (CD16A); hFcγRIIIa 176V
T2 sequence (P08637 17-208 F176V limits assumed): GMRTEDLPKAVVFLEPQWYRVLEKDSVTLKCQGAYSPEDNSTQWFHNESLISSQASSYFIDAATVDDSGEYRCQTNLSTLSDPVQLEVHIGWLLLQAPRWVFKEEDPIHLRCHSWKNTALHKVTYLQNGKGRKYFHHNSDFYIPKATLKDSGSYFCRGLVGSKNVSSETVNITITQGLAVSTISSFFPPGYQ
The description is as above.
Text: as §1, §2

Assay [3] concerns the target T3, Human CD16A 176 Phe (FcγRIIIA176Phe), His-tagged (human, UniProt P08637 17-208).
T3 construct: also called hFcγRIIIa 176F
Described as above.
Text: as §1, §2

For assay [4], the target named is T4, Human FcRn (neonatal Fc receptor) (human, UniProt P55899 24-297; P61769 21-119).
T4 construct: also called hFcRn
T4 sequence (P55899 24-297 limits assumed, chain 1 of 2): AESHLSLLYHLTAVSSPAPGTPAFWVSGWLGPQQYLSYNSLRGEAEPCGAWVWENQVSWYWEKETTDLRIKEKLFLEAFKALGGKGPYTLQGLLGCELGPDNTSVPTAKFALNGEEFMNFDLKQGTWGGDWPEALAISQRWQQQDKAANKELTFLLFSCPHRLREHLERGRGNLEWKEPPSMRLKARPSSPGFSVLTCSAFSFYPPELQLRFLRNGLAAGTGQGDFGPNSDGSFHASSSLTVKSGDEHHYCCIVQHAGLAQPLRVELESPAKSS
T4 sequence (P61769 21-119 limits assumed, chain 2 of 2): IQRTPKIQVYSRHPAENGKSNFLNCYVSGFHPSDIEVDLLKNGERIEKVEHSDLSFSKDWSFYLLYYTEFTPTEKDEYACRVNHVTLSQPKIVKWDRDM
The assay can be described thus: SPR steady state, pH 6.0, FcRn amine-coupled, antibody as analyte; pH 6.0; 31.25 nM to 2000 nM antibody over hFcRn on the chip.
Experimental: (§3) Antibodies were passed over the chip with increasing concentrations at a flow rate of 30 μl/min and at 25° C. The injection time was 40 s per concentration and the dissociation time was 75 s. […] Interactions were analysed using a steady state model (see FIGS. 19a to 19d for example data).

Assay [5] deals with T5, HMW-MAA (high molecular weight-melanoma associated antigen) on A375 cells (UniProt Q6UVK1 30-2322).
T5 construct: whole, on cells; also called CSPG4; chondroitin sulfate proteoglycan 4
T5 sequence (Q6UVK1 30-2322): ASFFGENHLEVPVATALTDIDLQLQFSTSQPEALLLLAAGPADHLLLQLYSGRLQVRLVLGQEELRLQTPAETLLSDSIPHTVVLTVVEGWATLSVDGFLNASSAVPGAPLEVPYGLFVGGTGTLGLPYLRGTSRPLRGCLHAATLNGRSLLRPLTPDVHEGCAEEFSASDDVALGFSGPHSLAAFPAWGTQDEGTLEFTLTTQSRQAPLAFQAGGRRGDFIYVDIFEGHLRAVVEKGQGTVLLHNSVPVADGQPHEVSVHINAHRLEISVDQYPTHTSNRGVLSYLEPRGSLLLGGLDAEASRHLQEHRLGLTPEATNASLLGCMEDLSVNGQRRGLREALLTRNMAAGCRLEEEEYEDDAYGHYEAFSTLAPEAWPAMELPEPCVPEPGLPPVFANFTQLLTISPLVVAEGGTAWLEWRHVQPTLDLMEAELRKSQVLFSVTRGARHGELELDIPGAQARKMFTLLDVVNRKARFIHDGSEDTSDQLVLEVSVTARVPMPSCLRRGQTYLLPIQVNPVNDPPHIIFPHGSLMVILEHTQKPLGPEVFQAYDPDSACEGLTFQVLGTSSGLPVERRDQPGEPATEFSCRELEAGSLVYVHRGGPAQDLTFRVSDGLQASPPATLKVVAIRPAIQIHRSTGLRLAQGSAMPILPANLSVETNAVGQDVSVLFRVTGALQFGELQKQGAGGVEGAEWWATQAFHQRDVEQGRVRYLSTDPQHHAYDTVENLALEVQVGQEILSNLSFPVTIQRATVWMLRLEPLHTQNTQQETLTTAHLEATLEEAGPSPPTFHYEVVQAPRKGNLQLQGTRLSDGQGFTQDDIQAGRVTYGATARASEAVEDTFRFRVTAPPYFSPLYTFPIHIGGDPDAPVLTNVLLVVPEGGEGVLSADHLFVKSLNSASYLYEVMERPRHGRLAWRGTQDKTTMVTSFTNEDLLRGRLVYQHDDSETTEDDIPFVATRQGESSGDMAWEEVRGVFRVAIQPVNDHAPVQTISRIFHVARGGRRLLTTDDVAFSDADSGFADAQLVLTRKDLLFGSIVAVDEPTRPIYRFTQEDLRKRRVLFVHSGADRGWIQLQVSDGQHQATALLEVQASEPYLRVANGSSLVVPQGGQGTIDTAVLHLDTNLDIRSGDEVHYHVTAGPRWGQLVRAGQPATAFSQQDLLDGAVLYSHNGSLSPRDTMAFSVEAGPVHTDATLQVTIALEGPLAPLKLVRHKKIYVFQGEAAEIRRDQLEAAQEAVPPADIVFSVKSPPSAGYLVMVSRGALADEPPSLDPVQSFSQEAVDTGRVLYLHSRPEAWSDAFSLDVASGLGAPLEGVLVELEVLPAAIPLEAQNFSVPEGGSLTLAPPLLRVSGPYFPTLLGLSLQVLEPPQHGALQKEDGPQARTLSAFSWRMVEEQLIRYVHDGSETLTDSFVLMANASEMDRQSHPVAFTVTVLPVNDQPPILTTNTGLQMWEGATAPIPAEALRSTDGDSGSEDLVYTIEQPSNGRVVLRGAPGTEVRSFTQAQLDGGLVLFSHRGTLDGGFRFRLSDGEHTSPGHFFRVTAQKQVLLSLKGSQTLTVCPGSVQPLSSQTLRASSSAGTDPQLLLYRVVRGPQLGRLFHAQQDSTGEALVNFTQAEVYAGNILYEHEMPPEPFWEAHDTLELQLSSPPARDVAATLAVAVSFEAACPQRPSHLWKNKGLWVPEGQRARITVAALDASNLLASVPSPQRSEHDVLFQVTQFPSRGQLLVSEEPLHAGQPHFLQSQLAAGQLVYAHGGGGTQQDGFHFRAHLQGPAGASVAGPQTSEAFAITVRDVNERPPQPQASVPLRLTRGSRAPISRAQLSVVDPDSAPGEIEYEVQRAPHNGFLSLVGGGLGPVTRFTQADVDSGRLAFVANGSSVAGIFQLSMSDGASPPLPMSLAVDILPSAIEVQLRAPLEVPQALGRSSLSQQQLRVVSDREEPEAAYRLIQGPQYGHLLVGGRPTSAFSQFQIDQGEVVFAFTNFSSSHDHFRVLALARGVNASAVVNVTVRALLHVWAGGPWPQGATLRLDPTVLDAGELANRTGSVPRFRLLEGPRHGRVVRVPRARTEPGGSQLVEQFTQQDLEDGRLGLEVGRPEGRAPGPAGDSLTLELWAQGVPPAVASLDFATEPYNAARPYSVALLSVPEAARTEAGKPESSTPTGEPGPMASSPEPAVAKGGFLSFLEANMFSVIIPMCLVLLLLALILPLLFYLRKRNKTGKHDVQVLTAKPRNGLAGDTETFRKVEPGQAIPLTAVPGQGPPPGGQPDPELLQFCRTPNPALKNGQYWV
Put plainly: flow cytometry on A375 cells, FITC goat anti-human IgG secondary. (In general: In flow cytometry, cells or beads pass a laser one at a time.)
Experimental: (§4) A375 cells were cultured using standard methods. When A375 cells were confluent, the cells were harvested. In brief, cells were washed with PBS before incubation with TrypLE™ at 37° C. for 10 minutes to detach the cells from the flask. Cells were resuspended in 10 mL of media and centrifuged for 3 minutes at 250 g. Cells were then resuspended in 1 mL FACS buffer and counted on the Cellometer® to determine the cell number and viability. Following this, cells were diluted to 1×10⁶ cells per mL with FACS buffer, and 100 μL of this cell suspension plated per well on a plate.
(§5) Binding of purified IGEGs to A375 cells (ATCC, Virginia, US) was assessed by flow cytometry using a Attune® NxT Acoustic Focusing Cytometer running Attune Software V3.1.2 (ThermoFisher Scientific, Loughborough, UK). […] Cells were washed and resuspended in FACS buffer and then acquired on the Attune® NxT Acoustic Focusing Cytometer. The data was analysed using FlowJo™ Software Version 10 (Becton, Dickinson and Company, New Jersey, US) and GraphPad Prism 8 (GraphPad Software, California, US).

Assay [6] concerns the target T6, Human FcεRIα (Fc epsilon RI alpha), His-tagged (human, UniProt P12319 26-205).
T6 construct: also called FceRIa; hFcεR1
T6 sequence (looked up): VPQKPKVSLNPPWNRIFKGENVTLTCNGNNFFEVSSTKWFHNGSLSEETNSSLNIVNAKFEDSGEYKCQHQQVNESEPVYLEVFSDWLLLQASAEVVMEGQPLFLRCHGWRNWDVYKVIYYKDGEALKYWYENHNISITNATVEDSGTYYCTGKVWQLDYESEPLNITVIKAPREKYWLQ
Put plainly: SPR single cycle, 1:1 fit, His-tagged receptor captured, antibody as analyte.
Text: as §1, §2

The target in assay [7] is T7, Human CD64 (FcγRI), His-tagged (human, UniProt P12314 16-288).
T7 construct: also called FcgRI; hFcγRI
T7 sequence (P12314 16-288 limits assumed): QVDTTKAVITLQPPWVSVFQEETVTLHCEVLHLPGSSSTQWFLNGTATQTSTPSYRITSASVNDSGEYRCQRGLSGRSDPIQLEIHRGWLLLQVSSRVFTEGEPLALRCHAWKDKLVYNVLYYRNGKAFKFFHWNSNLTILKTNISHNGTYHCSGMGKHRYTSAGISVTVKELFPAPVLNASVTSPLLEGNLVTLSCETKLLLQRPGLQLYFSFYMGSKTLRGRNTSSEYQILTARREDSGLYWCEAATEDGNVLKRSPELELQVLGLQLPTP
The description is as above.
Text: as §1, §2

Assay [8] addresses T1, Human CD16B (FcγRIIIB), His-tagged. The assay can be described thus: SPR single cycle, His-tagged receptor captured, antibody as analyte.
Text: as §1, §2
Assay [9] addresses T3, Human CD16A 176 Phe (FcγRIIIA176Phe), …. Described as above.
Text: as §1, §2
In assay [10] the target is T4, Human FcRn (neonatal Fc receptor). The assay can be described thus: SPR (Biacore T200), hFcRn amine-coupled to CM5 chip, antibody as analyte 31.25-2000 nM, pH 6.0, raw sensorgrams. (Surface plasmon resonance follows binding to a sensor surface in real time, without labels.)
Experimental: as §3
Assay [11] addresses T2, Human CD16A 176 Val (FcγRIIIA176Val), …. The assay can be described thus: SPR (Biacore T200) single cycle, His-tagged FcγRIIIA176Val captured on anti-His chip, antibody as analyte, raw sensorgrams.
Text: as §1, §2
The target of assay [12] is T7, Human CD64 (FcγRI), His-tagged. The assay can be described thus: SPR (Biacore T200) single cycle kinetics, His-tagged FcγRI captured on anti-His chip, antibody as analyte 0.411-33.33 nM.
Text: as §1, §2
Assay [13] concerns the target T5, HMW-MAA (high molecular weight-melanoma …). Put plainly: flow cytometry on A375 cells, FITC goat anti-human IgE secondary.
Experimental: as §4, §5
Assay [14] has as its target T4, Human FcRn (neonatal Fc receptor). Put plainly: SPR (Biacore T200), hFcRn amine-coupled to CM5 chip, antibody as analyte 31.25-2000 nM, pH 6.0, raw sensorgrams [Continued].
Experimental: as §3

T1 sequence (O75015 17-200 limits assumed): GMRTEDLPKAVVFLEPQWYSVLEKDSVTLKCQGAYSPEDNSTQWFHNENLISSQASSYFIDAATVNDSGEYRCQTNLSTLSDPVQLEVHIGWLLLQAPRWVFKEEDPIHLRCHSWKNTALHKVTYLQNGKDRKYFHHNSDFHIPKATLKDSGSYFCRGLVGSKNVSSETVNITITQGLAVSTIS
T3 sequence (P08637 17-208 limits assumed): as the sequence (P08637 17-208 F176V limits assumed) above, with V160F counted along it

B1: HMW-MAA_IGEG (HMW-MAA IgE IgG-Fc) (antibody)
heavy: not shown
light: DIQLTQSPSFLSASVGDRVTITCKASQNVDTNVAWYQQKPGKAPKPLLFSASYRYTGVPSRFSGSGSGTDFTLTISSLQPEDFATYFCQQYNSYPLTFGGGTKVEIKRTVAAPSVFIFPPSDEQLKSGTASVVCLLNNFYPREAKVQWKVDNALQSGNSQESVTEQDSKDSTYSLSSTLTLSKADYEKHKVYACEVTHQGLSSPVTKSFNRGEC
notes: also called CH IGEG
For the molecule B1, the Kd in assay [1] was 1480 nM; in assay [2], 386 nM; in [3] it was 665 nM; in [4] it was 1020 nM; in [6] it was 0.599 nM; in [7] it was 1.63 nM. The binding result in assay [5] is given as “binds”.

B2: HMW-MAA_IgE (antibody)
heavy: EVQLVQSGGGLVQPGGSLKLSCAVSGFTFSNYWMNWVRQAPGKGLEWVGEIRLKSNNFGRYYAESVKGRFTISRDDSKNTAYLQMNSLKTEDTAVYYCTSYGNYVGHYFDHWGQGTLVTVSSASTQSPSVFPLTRCCKNIPSNATSVTLGCLATGYFPEPVMVTWDTGSLNGTTMTLPATTLTLSGHYATISLLTVSGAWAKQMFTCRVAHTPSSTDWVDNKTFSVCSRDFTPPTVKILQSSCDGGGHFPPTIQLLCLVSGYTPGTINITWLEDGQVMDVDLSTASTTQEGELASTQSELTLSQKHWLSDRTYTCQVTYQGHTFEDSTKKCADSNPRGVSAYLSRPSPFDLFIRKSPTITCLVVDLAPSKGTVNLTWSRASGKPVNHSTRKEEKQRNGTLTVTSTLPVGTRDWIEGETYQCRVTHPHLPRALMRSTTKTSGPRAAPEVYAFATPEWPGSRDKRTLACLIQNFMPEDISVQWLHNEVQLPDARHSTTQPRKTKGSGFFVFSRLEVTRAEWEQKDEFICRAVHEAASPSQTVQRAVSVNPGK
light: DIQLTQSPSFLSASVGDRVTITCKASQNVDTNVAWYQQKPGKAPKPLLFSASYRYTGVPSRFSGSGSGTDFTLTISSLQPEDFATYFCQQYNSYPLTFGGGTKVEIKRTVAAPSVFIFPPSDEQLKSGTASVVCLLNNFYPREAKVQWKVDNALQSGNSQESVTEQDSKDSTYSLSSTLTLSKADYEKHKVYACEVTHQGLSSPVTKSFNRGEC
notes: also called HMW-MAA IgE-WT; anti-HMW-MAA IgE
On to B2, for which the binding result is reported as “no binding (tested: 8000 nM)” in [8]; “no binding (tested: 8000 nM)” in assay [9]; “no binding (tested: 2000 nM)” in [10]; “no binding (tested: 3e-6 M (top point of FIG. 17D))” in [11]; “no binding (tested: 33.33 nM)” in assay [12]; “binds” in assay [13]. In addition, in assay [6], the Kd came out at 0.508 nM.

B3: HMW-MAA_IGEG-C220S (HMW-MAA IgE-IgG-Fc C220S) (antibody)
heavy: not shown
light: DIQLTQSPSFLSASVGDRVTITCKASQNVDTNVAWYQQKPGKAPKPLLFSASYRYTGVPSRFSGSGSGTDFTLTISSLQPEDFATYFCQQYNSYPLTFGGGTKVEIKRTVAAPSVFIFPPSDEQLKSGTASVVCLLNNFYPREAKVQWKVDNALQSGNSQESVTEQDSKDSTYSLSSTLTLSKADYEKHKVYACEVTHQGLSSPVTKSFNRGEC
As for B3, the Kd in assay [1] worked out at 1870 nM; in assay [2], 400 nM; in assay [3], 775 nM; in [4], 1050 nM; in assay [6] it was 0.493 nM; in assay [7], 1.67 nM. Besides, the binding result in assay [5] is listed as “binds”.

B4: HMW-MAA_IGEG-C220S-dFcRn (antibody)
heavy: EVQLVQSGGGLVQPGGSLKLSCAVSGFTFSNYWMNWVRQAPGKGLEWVGEIRLKSNNFGRYYAESVKGRFTISRDDSKNTAYLQMNSLKTEDTAVYYCTSYGNYVGHYFDHWGQGTLVTVSSASTQSPSVFPLTRCCKNIPSNATSVTLGCLATGYFPEPVMVTWDTGSLNGTTMTLPATTLTLSGHYATISLLTVSGAWAKQMFTCRVAHTPSSTDWVDNKTFSVCSRDFTPPTVKILQSSCDGGGHFPPTIQLLCLVSGYTPGTINITWLEDGQVMDVDLSTASTTQEGELASTQSELTLSQKHWLSDRTYTCQVTYQGHTFEDSTKKCADSNPRGVSAYLSRPSPFDLFIRKSPTITCLVVDLAPSKGTVNLTWSRASGKPVNHSTRKEEKQRNGTLTVTSTLPVGTRDWIEGETYQCRVTHPHLPRALMRSTTKTSGPRAAPEVYAFATPEWPGSRDKRTLACLIQNFMPEDISVQWLHNEVQLPDARHSTTQPRKTKGSGFFVFSRLEVTRAEWEQKDEFICRAVHEAASPSQTVQRAVSVNPGKRSEPKSSDKTHTCPPCPAPELLGGPSVFLFPPKPKDTLMASRTPEVTCVVVDVSHEDPEVKFNWYVDGVEVHNAKTKPREEQYNSTYRVVSVLTVLAQDWLNGKEYKCKVSNKALPAPIEKTISKAKGQPREPQVYTLPPSREEMTKNQVSLTCLVKGFYPSDIAVEWESNGQPENNYKTTPPVLDSDGSFFLYSKLTVDKSRWQQGNVFSCSVMHEALHNAYTQKSLSLSPGK
light: DIQLTQSPSFLSASVGDRVTITCKASQNVDTNVAWYQQKPGKAPKPLLFSASYRYTGVPSRFSGSGSGTDFTLTISSLQPEDFATYFCQQYNSYPLTFGGGTKVEIKRTVAAPSVFIFPPSDEQLKSGTASVVCLLNNFYPREAKVQWKVDNALQSGNSQESVTEQDSKDSTYSLSSTLTLSKADYEKHKVYACEVTHQGLSSPVTKSFNRGEC
With B4, the Kd is 2780 nM in assay [1]; 601 nM in assay [2]; 1160 nM in assay [3]; 0.535 nM in assay [6]; 2.18 nM in assay [7]. Further, the binding result in [14] is “no binding (tested: 2000 nM)”; in [5] it was “binds”.

B5: HMW-MAA_IGEG-dFcRn (antibody, human IgG1, kappa)
heavy: EVQLVQSGGGLVQPGGSLKLSCAVSGFTFSNYWMNWVRQAPGKGLEWVGEIRLKSNNFGRYYAESVKGRFTISRDDSKNTAYLQMNSLKTEDTAVYYCTSYGNYVGHYFDHWGQGTLVTVSSASTQSPSVFPLTRCCKNIPSNATSVTLGCLATGYFPEPVMVTWDTGSLNGTTMTLPATTLTLSGHYATISLLTVSGAWAKQMFTCRVAHTPSSTDWVDNKTFSVCSRDFTPPTVKILQSSCDGGGHFPPTIQLLCLVSGYTPGTINITWLEDGQVMDVDLSTASTTQEGELASTQSELTLSQKHWLSDRTYTCQVTYQGHTFEDSTKKCADSNPRGVSAYLSRPSPFDLFIRKSPTITCLVVDLAPSKGTVNLTWSRASGKPVNHSTRKEEKQRNGTLTVTSTLPVGTRDWIEGETYQCRVTHPHLPRALMRSTTKTSGPRAAPEVYAFATPEWPGSRDKRTLACLIQNFMPEDISVQWLHNEVQLPDARHSTTQPRKTKGSGFFVFSRLEVTRAEWEQKDEFICRAVHEAASPSQTVQRAVSVNPGKRSEPKSCDKTHTCPPCPAPELLGGPSVFLFPPKPKDTLMASRTPEVTCVVVDVSHEDPEVKFNWYVDGVEVHNAKTKPREEQYNSTYRVVSVLTVLAQDWLNGKEYKCKVSNKALPAPIEKTISKAKGQPREPQVYTLPPSREEMTKNQVSLTCLVKGFYPSDIAVEWESNGQPENNYKTTPPVLDSDGSFFLYSKLTVDKSRWQQGNVFSCSVMHEALHNAYTQKSLSLSPGK
light: DIQLTQSPSFLSASVGDRVTITCKASQNVDTNVAWYQQKPGKAPKPLLFSASYRYTGVPSRFSGSGSGTDFTLTISSLQPEDFATYFCQQYNSYPLTFGGGTKVEIKRTVAAPSVFIFPPSDEQLKSGTASVVCLLNNFYPREAKVQWKVDNALQSGNSQESVTEQDSKDSTYSLSSTLTLSKADYEKHKVYACEVTHQGLSSPVTKSFNRGEC
On to B5, for which the Kd in [1] amounted to 2030 nM; in assay [2] it was 535 nM; in assay [3], 960 nM; in assay [6], 0.556 nM; in assay [7], 2.02 nM. Also, the binding result was “no binding (tested: 2000 nM)” in assay [14] and “binds” in [5].
